For one substance, Kd results are on record in patent publication EP2814500B1.

The assay has as its target mouse glycophorin-A (GYPA) on the mouse erythrocyte surface (mouse) (UniProt P14220). Put plainly: equilibrium binding to mouse erythrocytes, flow cytometry, one-site binding fit.

ERY1-OVA (ovalbumin chemically conjugated with ERY1 peptide through SMCC), sequence (P01012 2-386, form in doubt): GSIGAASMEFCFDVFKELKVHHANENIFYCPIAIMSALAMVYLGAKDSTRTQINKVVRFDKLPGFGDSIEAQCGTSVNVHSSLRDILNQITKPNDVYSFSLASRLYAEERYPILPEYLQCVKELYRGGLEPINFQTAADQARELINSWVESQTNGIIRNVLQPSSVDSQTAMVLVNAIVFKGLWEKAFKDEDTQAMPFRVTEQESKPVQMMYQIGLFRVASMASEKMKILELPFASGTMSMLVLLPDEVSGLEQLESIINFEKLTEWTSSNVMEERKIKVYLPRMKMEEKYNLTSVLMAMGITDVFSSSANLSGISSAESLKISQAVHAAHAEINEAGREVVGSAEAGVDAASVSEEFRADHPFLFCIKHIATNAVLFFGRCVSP

In turn, “ERY1-OVA (ovalbumin chemically conjugated with ERY1 peptide through SMCC) (from UniProt P01012 2-386)” had a dissociation constant Kd of 6.2 nM.
